Measured values from patent US20070141652.

Experiments:
[1] = biological target: purified wild-type Xenopus TPX2 (GST tag removed)
[2] = biological target: ΔNTPX2 (Xenopus TPX2 with amino acid 1 to 40 deleted, GST tag removed)

B1: Xenopus Aurora A kinase (AurA, also called Eg2), endogenous in egg extracts (protein)
chain: MERAVKENHKPSNVKIFHPMTEGAKRIPVNQPQSTQFRPPGTAVSAQRILGPSNVPQRVLAQAQKPILSSQKPTTQIPLRPATQGHQSSKPQGPNENRNPQQTSHSSTPNVEKKGSTDQGKTSAVPKEEGKKKQWCLEDFEIGRPLGKGKFGNVYLARERESKFILALKVLFKSQLEKAGVEHQLRREVEIQSHLRHPNILRLYGYFHDASRVYLILDYAPGGELFRELQKCTRFDDQRSAMYIKQLAEALLYCHSKKVIHRDIKPENLLLGSNGELKIADFGWSVHAPSSRRTTLCGTLDYLPPEMIEGRMHDETVDLWSLGVLCYEFLVGKPPFETDTHQETYRRISKVEFQYPPYVSEEARDLVSKLLKHNPNHRLPLKGVLEHPWIIKNSQLKKKDEPLPGAQ
AurA activation, as determined by autophosphorylation of the activation loop at threonine 295 of AurA with antibody recognizing phospho-T295 [1]: RanGTP-induced AurA activation in TPX2-depleted egg extracts could be rescued by adding purified wild-type TPX2
AurA activation, as determined by autophosphorylation of the activation loop at threonine 295 of AurA with antibody recognizing phospho-T295 [2]: AurA activation was either completely lacking or slightly enhanced compared to the TPX2-depleted egg extract
